B1: CD3.217 (bispecific antibody, V domains shown)
VH: EVQLVESGGGIVQPGGSLRLSCAASGFTFSTYAMNWVRQAPGKGLEWVGRIRSKYNDYATYYADSVKGRFTISRDDSKNTVYLQMNSLKTEDTAVYYCVRHENFGNSYVSWFAHWGQGTLVTVSS
VL: ELVVTQEPSLTVSPGGTVTLTCRSSNGAVTSSNYANWVQQKPGQAPRGLIGGTNKRAPGTPARFSGSLLGGKAALTLSGVQPEDEAVYYCALWYPNLWVFGGGTKLTVL
notes: paTCE with PSMA.262; also called AC3648
B2: CD3.247 (bispecific antibody, V domains shown)
VH: B1 VH with S30N, G49A, Y55R, D57N, Y61T, G68D, V81L
VL: B1 VL
notes: paTCE with PSMA.262; also called AC3678
B3: CD3.237 (bispecific antibody, V domains shown)
VH: B1 VH with S30N, D57N, Y58G, S87E
VL: B1 VL
notes: paTCE with PSMA.262; also called AC3668
B4: CD3.239 (bispecific antibody, V domains shown)
VH: B1 VH with S30N, G49A, Y55R, D57N, Y61T, G68D
VL: B1 VL
notes: paTCE with PSMA.262; also called AC3670
B5: CD3.257 (bispecific antibody, V domains shown)
VH: B1 VH with S30N, Y55T, D57N, Y61T, G68D, S87E
VL: B1 VL
notes: paTCE with PSMA.262; also called AC3688
B6: CD3.242 (bispecific antibody, V domains shown)
VH: B1 VH with S30N, V81L
VL: B1 VL
notes: paTCE with PSMA.262; also called AC3673
B7: CD3.218 (bispecific antibody, V domains shown)
VH: B1 VH with D57N, Y61T
VL: B1 VL
notes: paTCE with PSMA.262; also called AC3649
B8: CD3.233 (bispecific antibody, V domains shown)
VH: B1 VH with S30N, S53T, D57N, Y61T
VL: B1 VL
notes: paTCE with PSMA.262; also called AC3664
B9: CD3.259 (bispecific antibody, V domains shown)
VH: B1 VH with S30N, Y55R, D57N, Y61T, G68D, V81L
VL: B1 VL
notes: paTCE with PSMA.262; also called AC3690
B10: CD3.246 (bispecific antibody, V domains shown)
VH: B1 VH with S30N, G49A, S53T, D57N, Y61T, G68D, V81L
VL: B1 VL
notes: paTCE with PSMA.262; also called AC3677
B11: CD3.220 (bispecific antibody, V domains shown)
VH: B1 VH with S53T, Y55R, D57N, S87E
VL: B1 VL
notes: paTCE with PSMA.262; also called AC3651
B12: CD3.255 (bispecific antibody, V domains shown)
VH: B1 VH with S30N, Y55R, D57N, Y61T, G68D, S87E
VL: B1 VL
notes: paTCE with PSMA.262; also called AC3686
B13: CD3.226 (bispecific antibody, V domains shown)
VH: B1 VH with S53T, D57N, Y61T, S87E
VL: B1 VL
notes: paTCE with PSMA.262; also called AC3657
B14: CD3.236 (bispecific antibody, V domains shown)
VH: B1 VH with S30N, D57N, Y58G
VL: B1 VL
notes: paTCE with PSMA.262; also called AC3667
B15: CD3.244 (bispecific antibody, V domains shown)
VH: B1 VH with S30N, D57N, Y58G, V81L
VL: B1 VL
notes: paTCE with PSMA.262; also called AC3675
B16: CD3.254 (bispecific antibody, V domains shown)
VH: B1 VH with S30N, S53T, D57N, Y61T, G68D, S87E
VL: B1 VL
notes: paTCE with PSMA.262; also called AC3685
B17: CD3.223 (bispecific antibody, V domains shown)
VH: B1 VH with S30N, S53T, S87E
VL: B1 VL
notes: paTCE with PSMA.262; also called AC3654
B18: CD3.234 (bispecific antibody, V domains shown)
VH: B1 VH with S53T, D57N, Y61T
VL: B1 VL
notes: paTCE with PSMA.262; also called AC3665
B19: CD3.219 (bispecific antibody, V domains shown)
VH: B1 VH with S30N, S53T, Y55R, D57N, S87E
VL: B1 VL
notes: paTCE with PSMA.262; also called AC3650
B20: CD3.238 (bispecific antibody, V domains shown)
VH: B1 VH with S30N, G49A, S53T, D57N, Y61T, G68D
VL: B1 VL
notes: paTCE with PSMA.262; also called AC3669
B21: CD3.231 (bispecific antibody, V domains shown)
VH: B1 VH with S30N, S53T
VL: B1 VL
notes: paTCE with PSMA.262; also called AC3662
B22: CD3.222 (bispecific antibody, V domains shown)
VH: B1 VH with S53T, Y55T, D57N, S87E
VL: B1 VL
notes: paTCE with PSMA.262; also called AC3653
B23: CD3.263 (bispecific antibody, V domains shown)
VH: B1 VH with R19K, S30N, S53T, Y55R, D57N
VL: B1 VL
notes: paTCE with PSMA.262; also called AC3694
B24: CD3.250 (bispecific antibody, V domains shown)
VH: B1 VH with S30N, S53T, D57N, Y61T, G68D
VL: B1 VL
notes: paTCE with PSMA.262; also called AC3681
B25: CD3.249 (bispecific antibody, V domains shown)
VH: B1 VH with S30N, G49A, Y55T, D57N, Y61T, G68D, V81L
VL: B1 VL
notes: paTCE with PSMA.262; also called AC3680
B26: CD3.264 (bispecific antibody, V domains shown)
VH: B1 VH with R19K, S53T, Y55R, D57N
VL: B1 VL
notes: paTCE with PSMA.262; also called AC3695
B27: CD3.235 (bispecific antibody, V domains shown)
VH: B1 VH with S30N, D57E
VL: B1 VL
notes: paTCE with PSMA.262; also called AC3666
B28: CD3.241 (bispecific antibody, V domains shown)
VH: B1 VH with S30N, G49A, Y55T, D57N, Y61T, G68D
VL: B1 VL
notes: paTCE with PSMA.262; also called AC3672
B29: CD3.262 (bispecific antibody, V domains shown)
VH: B1 VH with S30N, Y55R, D57N, Y61T, G68D, V81L, S87E
VL: B1 VL
notes: paTCE with PSMA.262; also called AC3693
B30: CD3.252 (bispecific antibody, V domains shown)
VH: B1 VH with S30N, Y55K, D57N, Y61T, G68D
VL: B1 VL
notes: paTCE with PSMA.262; also called AC3683
B31: CD3.224 (bispecific antibody, V domains shown)
VH: B1 VH with S53T, S87E
VL: B1 VL
notes: paTCE with PSMA.262; also called AC3655
B32: CD3.221 (bispecific antibody, V domains shown)
VH: B1 VH with S30N, S53T, Y55T, D57N, S87E
VL: B1 VL
notes: paTCE with PSMA.262; also called AC3652
B33: CD3.225 (bispecific antibody, V domains shown)
VH: B1 VH with S30N, S53T, D57N, Y61T, S87E
VL: B1 VL
notes: paTCE with PSMA.262; also called AC3656
B34: CD3.240 (bispecific antibody, V domains shown)
VH: B1 VH with S30N, G49A, Y55K, D57N, Y61T, G68D
VL: B1 VL
notes: paTCE with PSMA.262; also called AC3671
B35: CD3.260 (bispecific antibody, V domains shown)
VH: B1 VH with S30N, Y55K, D57N, Y61T, G68D, V81L
VL: B1 VL
notes: paTCE with PSMA.262; also called AC3691
B36: CD3.258 (bispecific antibody, V domains shown)
VH: B1 VH with S30N, S53T, D57N, Y61T, G68D, V81L
VL: B1 VL
notes: paTCE with PSMA.262; also called AC3689
B37: CD3.261 (bispecific antibody, V domains shown)
VH: B1 VH with S30N, Y55T, D57N, Y61T, G68D, V81L
VL: B1 VL
notes: paTCE with PSMA.262; also called AC3692
B38: CD3.253 (bispecific antibody, V domains shown)
VH: B1 VH with S30N, Y55T, D57N, Y61T, G68D
VL: B1 VL
notes: paTCE with PSMA.262; also called AC3684
B39: CD3.245 (bispecific antibody, V domains shown)
VH: B1 VH with S30N, D57N, Y58G, V81L, S87E
VL: B1 VL
notes: paTCE with PSMA.262; also called AC3676
B40: CD3.248 (bispecific antibody, V domains shown)
VH: B1 VH with S30N, G49A, Y55K, D57N, Y61T, G68D, V81L
VL: B1 VL
notes: paTCE with PSMA.262; also called AC3679
B41: CD3.232 (bispecific antibody, V domains shown)
VH: B1 VH with S53T
VL: B1 VL
notes: paTCE with PSMA.262; also called AC3663
B42: PSMA.306 (bispecific antibody, V domains shown)
VH: QVQLVESGGGVVQPGRSLRLSCAASGRTFGIYVMGWFRQAPGKEREFVGAMSWSGSNRKVSDSVKGRFTISRDNSKNTLYLQMNSLRAEDTAVYYCAASNKLYGRTWYDFNESDYWGQGTQVTVSS
notes: TCE with CD3.23; also called AC3708
B43: PSMA.301 (bispecific antibody, V domains shown)
VH: B42 VH with M51I, Y95F
notes: TCE with CD3.23; also called AC3703

Substitutions are numbered along the chain they refer to.

T1 sequence (P07766 23-126 limits assumed): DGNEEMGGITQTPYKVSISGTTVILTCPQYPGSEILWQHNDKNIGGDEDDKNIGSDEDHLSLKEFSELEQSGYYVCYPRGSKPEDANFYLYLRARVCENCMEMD

One assay addresses T1, human CD3 epsilon (human, UniProt P07766 23-126, limits assumed).
T1 construct: also called huCD3e
Put plainly: Octet, crude lysate. Here is the method:
Pool 2 consisted of paTCE molecules each containing PSMA.262 and one of 64 CD3.23 mutation combination variants. Stability and affinity of the individually expressed molecules in the form of crude lysate was evaluated by Octet. […] The binding of these anti-CD3 molecules (CD3.227, CD3.228, CD3.229 and CD3.230) to human and cynomolgus CD3 was measured by Octet and the Tm was measured by Differential Scanning Fluorimetry. All variants were paired with PSMA.262 except for CD3.23 which was paired with PSMA.5.
Background: Biolayer interferometry detects binding as a change in optical thickness at a sensor tip.
The term Kd denotes the equilibrium constant for the complex coming apart. Take B1: the Kd came out at 10.7 nM.
As to B2, the Kd is 28.9 nM.
As to B3, the Kd was found to be 22.2 nM.
The same measure, in the same setting: for B4 the value was 29.9 nM; for B5, 159 nM.
On the same count and under the same terms, for B6 the value was 7.7 nM; for B7, 52.6 nM; for B8, 24.9 nM.
Still for that read-out and setting: for B9 the value was 29.4 nM.
Consider B10, for which the Kd is 35.2 nM.
B11: the Kd amounted to 4.8 nM.
Still for that read-out and setting: for B12 the value was 22.4 nM; for B13, 50.9 nM.
Same read-out and setting: for B14 the value was 21.9 nM; for B15, 43.6 nM.
With B16, the Kd is 32.3 nM.
Regarding B17, the Kd was 6 nM.
With B18, the Kd is 17.4 nM.
With B19, the Kd is 4.7 nM.
On the same count and under the same terms, for B20 the value was 23.1 nM; for B21, 5.1 nM.
For B22, the Kd stood at 10.8 nM.
The same measure, in the same setting: for B23 the value was 7.2 nM; for B24, 31 nM.
With B25, the Kd came out at 128 nM.
On the same count and under the same terms, with B26 the figure was 4.5 nM; with B27, 6.5 nM; with B28, 92.6 nM.
On the same count and under the same terms, for B29 the value was 25.4 nM.
The same measure, in the same setting: for B30 the value was 22.9 nM.
Turning to B31, the Kd was 6.4 nM.
Turning to B32, the Kd came out at 11.7 nM.
Same read-out and setting: with B33 the figure was 19.5 nM; with B34, 16.5 nM; with B35, 45.6 nM.
On the same count and under the same terms, with B36 the figure was 38 nM; with B37, 97 nM; with B38, 79.9 nM.
Same read-out and setting: for B39 the value was 19.3 nM; for B40, 49.2 nM; for B41, 5.1 nM.

The target of the next assay is T2, human PSMA (human, UniProt Q04609 44-750, limits assumed).
T2 construct: also called huPSMA; hPSMA
T2 sequence (Q04609 44-750 limits assumed): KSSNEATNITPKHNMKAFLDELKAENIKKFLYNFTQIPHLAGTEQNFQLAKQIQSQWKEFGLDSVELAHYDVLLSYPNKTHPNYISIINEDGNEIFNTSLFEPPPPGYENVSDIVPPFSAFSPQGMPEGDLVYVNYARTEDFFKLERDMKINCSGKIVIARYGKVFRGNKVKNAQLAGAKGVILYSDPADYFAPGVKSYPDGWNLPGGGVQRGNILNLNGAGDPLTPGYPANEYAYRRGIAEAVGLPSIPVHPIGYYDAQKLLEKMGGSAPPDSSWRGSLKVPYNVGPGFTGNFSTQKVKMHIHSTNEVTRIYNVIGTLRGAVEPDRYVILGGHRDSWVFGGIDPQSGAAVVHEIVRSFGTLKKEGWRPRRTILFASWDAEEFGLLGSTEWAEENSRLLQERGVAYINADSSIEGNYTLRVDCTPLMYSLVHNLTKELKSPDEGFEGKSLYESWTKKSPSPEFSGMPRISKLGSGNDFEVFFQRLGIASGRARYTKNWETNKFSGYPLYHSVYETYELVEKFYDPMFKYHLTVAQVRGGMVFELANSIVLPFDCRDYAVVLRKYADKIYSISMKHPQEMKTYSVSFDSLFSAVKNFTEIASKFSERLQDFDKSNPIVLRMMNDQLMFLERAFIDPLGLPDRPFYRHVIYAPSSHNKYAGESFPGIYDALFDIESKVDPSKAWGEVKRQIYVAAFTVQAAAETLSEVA
Put plainly: binding screen.
On to B42, for which binding was put at a Kd of 10.4 nM.
As to B43, the Kd was determined as 10 nM.
